We go through six molecules from patent US20240254229A1 (Molecular Partners, published 2024).

Experiment [1] addresses T1, human CD3 on primary human pan-T cells (human, UniProt P07766 23-207; P09693 23-182; P04234 22-171; P20963 22-164).
T1 construct: whole, on cells; Native complex on T cells isolated from PBMC; also called CD3 on Pan-T cells
The experiment in a line: Mirrorball cytometry on primary human pan-T cells, 600 µM HSA. The procedure: (§1) The determination of T cell binding was performed with primary human T cells using Mirrorball laser scanning imaging cytometry. Therefore, primary T cells were isolated from human peripheral blood mononuclear cells (PBMCs) using a pan-T cell purification kit (Miltenyi Biotec). A titration of DARPin® protein #27, DARPin® protein #28 and DARPin® protein #29 and DARPin® protein #30 were incubated with 50′000 pan-T cells per well in presence of 600 μM human serum albumin (to mimic physiological serum concentration) for 30 minutes at 4° C. Two benchmark T-cell engagers, AMG330 and flotetuzumab were applied as controls, targeting CD33 or CD123. After washing, CD3 binding was detected by 1:100-diluted anti-penta-His Alexa Fluor 488 antibody (Qiagen). After 30 min incubation at 4° C., cells were washed and resuspended in Cytofix fixation buffer (BD Biosciences) and counterstained by 5 μM DRAQ5 (Abcam) for 15 min at RT. Median of mean fluorescence intensities of Alexa Fluor 488 binding on far-red counterstained cells were measured by Mirrorball using Cellista software (SPT Labtech) and data was plotted using GraphPad Prism 8.

In experiment [2] the target is T1, human CD3 on primary human pan-T cells. The experiment can be described thus: Mirrorball laser scanning cytometry on primary human pan-T cells, anti-penta-His Alexa Fluor 488 detection, 600 µM HSA. The procedure:
as §1, with “of CD3” for “of T cell”, “protein #7,” for “protein #27,”, “protein #8” for “protein #28”, “protein #9” for “protein #29”, “protein #10, formatted into a trispecific format (including CD33 and CD123 binding ankyrin repeat domains), DARPin® protein #11, DARPin® protein #12, DARPin® protein #13 and DARPin® protein #14 UN tetraspecific format (including an additional ankyrin repeat domain binding specifically to human serum albumin)” for “protein #30”

Experiment [3] addresses T2, biotinylated extracellular domain of human CD123 (SEQ ID NO: 88), Fc and Avi tagged (human, UniProt P26951 19-303, biotinylated with BirA-GST (Avi tag)).
T2 construct: also called hCD123
T2 sequence: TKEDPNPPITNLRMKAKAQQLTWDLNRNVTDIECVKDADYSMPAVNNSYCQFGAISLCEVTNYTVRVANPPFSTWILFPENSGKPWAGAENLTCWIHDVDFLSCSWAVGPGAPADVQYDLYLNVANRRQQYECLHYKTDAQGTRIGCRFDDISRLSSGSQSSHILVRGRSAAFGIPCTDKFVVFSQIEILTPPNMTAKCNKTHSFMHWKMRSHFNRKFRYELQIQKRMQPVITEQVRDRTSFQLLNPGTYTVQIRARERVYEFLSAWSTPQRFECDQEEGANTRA
The experiment can be described thus: SPR (ProteOn XPR36), target on GLC chip.

A further experiment addresses T3, human serum albumin (human, UniProt P02768 25-609).
T3 construct: also called HSA; SA
The experiment in a line: SPR (ProteOn XPR36), target on GLC chip.

The target in experiment [4] is T4, biotinylated extracellular domain of human CD33 (SEQ ID NO: 87), Fc and Avi tagged (human, UniProt P20138 18-259, biotinylated with BirA-GST (Avi tag)).
T4 construct: also called hCD33; human target hCD33
The experiment can be described thus: SPR (ProteOn XPR36), target on GLC chip, DARPin as analyte.

Experiment [5] concerns the target T5, extracellular domain of human CD70 (SEQ ID NO: 89), hCD70-Fc-trimer, ACRO Biosystems (human, UniProt P32970 52-193, chemically biotinylated where the biotinylated form was used).
T5 construct: also called human CD70-Fc-trimer; Bio.CD70
T5 sequence: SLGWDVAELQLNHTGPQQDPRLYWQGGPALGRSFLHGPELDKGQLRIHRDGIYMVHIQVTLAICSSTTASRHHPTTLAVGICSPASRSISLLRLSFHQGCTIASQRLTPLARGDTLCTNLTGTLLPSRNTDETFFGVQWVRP
Described as above.

T1 sequence (P07766 23-207, chain 1 of 4): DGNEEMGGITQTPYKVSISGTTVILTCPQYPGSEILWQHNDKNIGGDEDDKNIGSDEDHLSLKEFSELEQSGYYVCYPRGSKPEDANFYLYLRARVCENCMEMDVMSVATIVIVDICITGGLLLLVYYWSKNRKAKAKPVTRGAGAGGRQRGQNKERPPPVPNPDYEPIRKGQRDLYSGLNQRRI
T1 sequence (P09693 23-182, chain 2 of 4): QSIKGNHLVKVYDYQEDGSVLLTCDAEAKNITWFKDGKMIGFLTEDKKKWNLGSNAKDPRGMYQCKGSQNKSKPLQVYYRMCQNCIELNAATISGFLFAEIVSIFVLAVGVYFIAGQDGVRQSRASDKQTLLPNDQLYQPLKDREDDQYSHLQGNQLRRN
T1 sequence (P04234 22-171, chain 3 of 4): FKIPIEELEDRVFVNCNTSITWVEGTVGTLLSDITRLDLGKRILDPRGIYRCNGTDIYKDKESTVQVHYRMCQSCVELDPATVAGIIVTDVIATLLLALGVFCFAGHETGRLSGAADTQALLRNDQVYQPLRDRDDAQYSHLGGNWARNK
T1 sequence (P20963 22-164, chain 4 of 4): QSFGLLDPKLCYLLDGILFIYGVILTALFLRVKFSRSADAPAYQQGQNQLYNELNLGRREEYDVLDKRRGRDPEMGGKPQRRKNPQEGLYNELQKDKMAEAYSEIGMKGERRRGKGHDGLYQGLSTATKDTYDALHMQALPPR
T4 sequence (P20138 18-259 R69G): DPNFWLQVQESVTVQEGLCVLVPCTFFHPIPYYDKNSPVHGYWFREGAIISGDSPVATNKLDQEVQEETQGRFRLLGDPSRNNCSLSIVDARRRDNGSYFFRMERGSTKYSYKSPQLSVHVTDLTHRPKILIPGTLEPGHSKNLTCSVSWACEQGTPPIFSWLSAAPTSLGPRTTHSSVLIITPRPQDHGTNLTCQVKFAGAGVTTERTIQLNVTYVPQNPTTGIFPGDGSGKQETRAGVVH
T3 sequence (P02768 25-609 limits assumed): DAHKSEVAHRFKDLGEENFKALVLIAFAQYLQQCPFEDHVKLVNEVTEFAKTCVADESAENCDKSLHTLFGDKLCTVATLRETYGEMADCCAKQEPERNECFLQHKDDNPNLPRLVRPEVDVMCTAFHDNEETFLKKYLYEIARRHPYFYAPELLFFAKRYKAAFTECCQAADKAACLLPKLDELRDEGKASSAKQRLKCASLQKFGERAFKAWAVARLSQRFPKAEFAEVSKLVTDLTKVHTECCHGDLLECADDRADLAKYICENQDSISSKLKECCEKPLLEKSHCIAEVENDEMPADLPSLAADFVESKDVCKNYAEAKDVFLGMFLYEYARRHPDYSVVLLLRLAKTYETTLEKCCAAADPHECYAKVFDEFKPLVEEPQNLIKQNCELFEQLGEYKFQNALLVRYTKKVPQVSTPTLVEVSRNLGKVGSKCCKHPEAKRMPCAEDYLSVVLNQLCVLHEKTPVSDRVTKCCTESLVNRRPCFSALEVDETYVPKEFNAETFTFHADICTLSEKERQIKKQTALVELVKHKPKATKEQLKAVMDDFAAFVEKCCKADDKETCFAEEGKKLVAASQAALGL

B1: DARPin® protein #30 (designed binder)
chain: DLGYKLLQAAYDGQLDEVRILLKAGADVNAKDSRGQTPLHYAASIGHLEIVEVLLKAGADVNAKDDHGWTPLHLAAWSGHLEIVEVLLKAGADVNAQDQEGTTPADLAAVQGHQDIAEVLQKAAGSPTPTPTTPTPTPTTPTPTPTGSDLGKKLLEAALEGQDDEVRELLKAGADVNAKDQEGYTPLHLAAALGHLEIVEVLLKAGADVNAKDSIGRTPLHLAAYKGHLEIVEVLLKAGADVNAQDLLGETPADLAAEQGHEDIAEVLQKAAGSPTPTPTTPTPTPTTPTPTPTGSDLGVKLLRAAFHGQDDEVRILLAAGADVNAKDTDGETPLHYAAQFGHLEIVEVLLKAGADVNAKDAYGATPLHWAAWHGHLEIVEVLLKAGADVNAQDVSGATPADLAAKVGHEDIAEVLQKAAGSPTPTPTTPTPTPTTPTPTPTGSDLGQKLLEAAWAGQDDEVRELLKAGADVNAKNSRGWTPLHTAAQTGHLEIFEVLLKAGADVNAKDDKGVTPLHLAAALGHLEIVEVLLKAGADVNAQDSWGTTPADLAAKYGHEDIAEVLQKAA
notes: CD70-CD123-CD33-CD3; not shown: His-tag implied by anti-penta-His detection
As a reminder, the EC50 is the midpoint of the concentration-response curve. High values mean weaker potency, low ones greater potency. For the molecule B1, the response in experiment [1] was half-maximal at 1.8 nM (EC50).

B2: DARPin® protein 11 (designed binder)
single chain: DLGKKLLEAARAGQDDEVRELLKAGADVNAKDYFSHTPLHLAARNGHLKIVEVLLKAGADVNAKDFAGKTPLHLAAADGHLEIVEVLLKAGADVNAQDIFGKTPADIAADAGHEDIAEVLQKAAGSPTPTPTTPTPTPTTPTPTPTGSDLGKKLLEAARAGQDDEVRILMANGADVNALDWLGHTPLHLAAYEGHLEIVEVLLKNGADVNAIDDNNGFTPLHLAAIDGHLEIVEVLLKNGADVNAQDKFGKTAFDISIDNGNEDLAEILQKAAGSPTPTPTTPTPTPTTPTPTPTGSDLGDKLLLAATSGQDDEVRILLAAGADVNAKDYDGDTPLHLAADEGHLEIVEVLLKAGADVNAKDYSGSTPLHAAAAYGHLEIVEVLLKAGADVNAQDVFGYTPADLAAYVGHEDIAEVLQKAAGSPTPTPTTPTPTPTTPTPTPTGSDLGQKLLEAAWAGQDDEVRELLKAGADVNAKDSQGWTPLHTAAQTGHLEIFEVLLKAGADVNAKDDKGVTPLHLAAALGHLEIVEVLLKAGADVNAQDSWGTTPADLAAKYGHEDIAEVLQKAA
notes: half-life extended format of DARPin® protein #7; also called HSA-CD123-CD33-CD3
With B2, the binding result in experiment [2] is listed as “no binding (tested: about 3000 nM)”.

B3: DARPin® protein #14 (designed binder)
chain: DLGKKLLEAARAGQDDEVRELLKAGADVNAKDYFSHTPLHLAARNGHLKIVEVLLKAGADVNAKDFAGKTPLHLAAADGHLEIVEVLLKAGADVNAQDIFGKTPADIAADAGHEDIAEVLQKAAGSPTPTPTTPTPTPTTPTPTPTGSDLGKKLLEAARAGQDDEVRILMANGADVNALDWLGHTPLHLAAYEGHLEIVEVLLKNGADVNAIDDNNGFTPLHLAAIDGHLEIVEVLLKNGADVNAQDKFGKTAFDISIDNGNEDLAEILQKAAGSPTPTPTTPTPTPTTPTPTPTGSDLGDKLLLAATSGQDDEVRILLAAGADVNAKDYDGDTPLHLAADEGHLEIVEVLLKAGADVNAKDYSGSTPLHAAAAYGHLEIVEVLLKAGADVNAQDVFGYTPADLAAYVGHEDIAEVLQKAAGSPTPTPTTPTPTPTTPTPTPTGSDLGQKLLEAAWAGQLDEVRILLKAGADVNAKNSRGWTPLHTAAQTGHLEIFEVLLKAGADVNAKTNKRVTPLHLAAALGHLEIVEVLLKAGADVNARDTWGTTPADLAAKYGHRDIAEVLQKAA
notes: HSA-CD123-CD33-CD3, half-life extended form of #10; not shown: His-tag implied by anti-penta-His detection
In general, EC50 (read off the curve) refers to the concentration needed to bring the measured effect to its halfway point. Read a high EC50 (read off the curve) as a need for much substance. As to B3, in experiment [2], the “EC50 (read off the curve)” value was roughly 20 nM.

B4: DARPin® protein #7 (designed binder)
chain: DLGKKLLEAARAGQDDEVRILMANGADVNALDWLGHTPLHLAAYEGHLEIVEVLLKNGADVNAIDDNNGFTPLHLAAIDGHLEIVEVLLKNGADVNAQDKFGKTAFDISIDNGNEDLAEILQKAAGSPTPTPTTPTPTPTTPTPTPTGSDLGDKLLLAATSGQDDEVRILLAAGADVNAKDYDGDTPLHLAADEGHLEIVEVLLKAGADVNAKDYSGSTPLHAAAAYGHLEIVEVLLKAGADVNAQDVFGYTPADLAAYVGHEDIAEVLQKAAGSPTPTPTTPTPTPTTPTPTPTGSDLGQKLLEAAWAGQDDEVRELLKAGADVNAKDSQGWTPLHTAAQTGHLEIFEVLLKAGADVNAKDDKGVTPLHLAAALGHLEIVEVLLKAGADVNAQDSWGTTPADLAAKYGHEDIAEVLQKAA
notes: CD123-CD33-CD3 ankyrin repeat protein, no half-life extension; also called DARPin® #7; not shown: N-terminal His-tag
B4: in experiment [2], the binding result is recorded as “no binding”.

B5: DARPin® protein #28 (designed binder)
chain: DLGYKLLQAAYDGQLDEVRILLKAGADVNAKDSRGQTPLHYAASIGHLEIVEVLLKAGADVNAKDDHGWTPLHLAAWSGHLEIVEVLLKAGADVNAQDQEGTTPADLAAVQGHQDIAEVLQKAAGSPTPTPTTPTPTPTTPTPTPTGSDLGWKLLLAASRGQDDEVRILLAAGADVNAKDIDEGYTPLHIAAYYGHLEIVEVLLKAGADVNAKDRYGKTPLHLAAISGHEDIAEVLLKAGADVNAQDDKGDTPADLAADYGHEDIAEVLQKAAGSPTPTPTTPTPTPTTPTPTPTGSDLGQKLLEAAWAGQDDEVRELLKAGADVNAKNSRGWTPLHTAAQTGHLEIFEVLLKAGADVNAKDDKGVTPLHLAAALGHLEIVEVLLKAGADVNAQDSWGTTPADLAAKYGHEDIAEVLQKAA
notes: CD70-CD33-CD3; not shown: His-tag implied by anti-penta-His detection
On to B5, for which a half-maximal effect in experiment [1] (EC50) was put at 1.41 nM.

B6: DARPin® protein #29 (designed binder)
chain: DLGYKLLQAAYDGQLDEVRILLKAGADVNAKDSRGQTPLHYAASIGHLEIVEVLLKAGADVNAKDDHGWTPLHLAAWSGHLEIVEVLLKAGADVNAQDQEGTTPADLAAVQGHQDIAEVLQKAAGSPTPTPTTPTPTPTTPTPTPTGSDLGVKLLLAASRGQLDEVRILLKAGADVNAKDIDEGYTPLHIAAYYGHLEIVEVLLKAGADVNAKDRYGKTPLHLAAISGHLEIVEVLLKAGADVNAQDDKGDTPADLAADYGHQDIAEVLQKAAGSPTPTPTTPTPTPTTPTPTPTGSDLGQKLLEAAWAGQDDEVRELLKAGADVNAKNSRGWTPLHTAAQTGHLEIFEVLLKAGADVNAKDDKGVTPLHLAAALGHLEIVEVLLKAGADVNAQDSWGTTPADLAAKYGHEDIAEVLQKAA
notes: CD70-CD33-CD3; not shown: N-terminal His-tag
Usually Kd stands for a measure of binding affinity in units of concentration. Read a high Kd as lower affinity. Consider B6, for which the binding result (in experiment [3]; with human serum albumin) was “no binding (tested: 100 nM (highest concentration))” throughout. Further, the Kd came out at 4.8 nM in experiment [4] and 0.18 nM in experiment [5]. For the same molecule, in experiment [1], the EC50 was found to be 1.97 nM.
